T1: human Protein S (human, UniProt P07225 42-676)
T1 sequence: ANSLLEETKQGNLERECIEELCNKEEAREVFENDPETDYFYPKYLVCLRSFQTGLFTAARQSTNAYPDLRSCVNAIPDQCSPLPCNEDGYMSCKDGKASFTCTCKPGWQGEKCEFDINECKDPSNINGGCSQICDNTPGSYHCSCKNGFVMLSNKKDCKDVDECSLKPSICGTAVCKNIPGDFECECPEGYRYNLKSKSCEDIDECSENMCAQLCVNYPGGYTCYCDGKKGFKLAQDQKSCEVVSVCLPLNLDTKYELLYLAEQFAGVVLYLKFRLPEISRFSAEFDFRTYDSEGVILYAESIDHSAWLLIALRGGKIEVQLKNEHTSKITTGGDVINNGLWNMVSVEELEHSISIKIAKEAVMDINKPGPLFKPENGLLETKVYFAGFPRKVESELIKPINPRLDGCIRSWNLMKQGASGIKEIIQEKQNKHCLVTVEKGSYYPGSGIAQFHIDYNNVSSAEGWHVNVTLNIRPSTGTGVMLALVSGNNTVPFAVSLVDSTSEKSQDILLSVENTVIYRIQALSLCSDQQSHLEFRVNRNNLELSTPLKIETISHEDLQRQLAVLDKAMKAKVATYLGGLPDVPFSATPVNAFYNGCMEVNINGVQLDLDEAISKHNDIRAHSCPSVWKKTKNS

T2: recombinant heavy chain Protein S (human, UniProt P07225 42-296)
T2 construct: Fragment of Protein S spanning amino acids 42-296, expressed and purified from HEK293 cells; also called Protein S heavy chain; heavy chain of Protein S
T2 sequence: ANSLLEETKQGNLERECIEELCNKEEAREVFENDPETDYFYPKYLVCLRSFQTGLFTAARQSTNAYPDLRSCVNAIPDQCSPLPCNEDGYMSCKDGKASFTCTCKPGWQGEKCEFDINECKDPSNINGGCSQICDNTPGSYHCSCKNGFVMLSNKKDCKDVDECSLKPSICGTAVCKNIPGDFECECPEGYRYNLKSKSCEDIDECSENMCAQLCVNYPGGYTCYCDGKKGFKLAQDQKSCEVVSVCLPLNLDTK


Key:
human Protein S [1] = molecular target: T1, human Protein S; assay: cell-based or functional assay
human Protein S [2] = molecular target: T1, human Protein S; assay: ELISA; plate coated with human Protein S; 1 µg/ml antibody; 1 mM calcium chloride
Description: (§1) Calcium dependence of binding was determined using an ELISA based method. Briefly, high binding ELISA plates were coated with human Protein S. Then, buffer containing 1 μg/ml of antibody was applied to the well with either buffer containing 1 mM EDTA or 1 mM calcium chloride.

[3] = molecular target: T2, recombinant heavy chain Protein S; assay: ELISA on recombinant Protein S heavy chain
Description: (§2) Binding to the heavy chain of Protein S was determined using an ELISA based method. Briefly, high binding ELISA plates were coated with recombinant heavy chain Protein S expressed and purified from HEK293 cells. The “heavy chain” of Protein S represents a fragment of Protein S spanning amino acids 42-296. The coated plate was blocked with 1% casein solution. Then, buffer containing […] of antibody was applied to the well with buffer containing 1 mM calcium chloride.

[4] = molecular target: T2, recombinant heavy chain Protein S; assay: ELISA; plate coated with recombinant Protein S heavy chain; 1 mM CaCl2
Description: as §2

human Protein S [5] = molecular target: T1, human Protein S; assay: ELISA; plate coated with human Protein S; 1 µg/ml antibody; 1 mM EDTA
Description: as §1

IC50 TFPI (human Protein S [1])	Binding to Protein S in CaCl2 (OD) (human Protein S [2])	binding result [3]	Binding to heavy chain (OD) [4]	Binding to Protein S in EDTA (OD) (human Protein S [5])	IC50 APC (human Protein S [1])	Binder
< 0.0044 µM	0.57 OD	no binding	0.1 OD	0.26 OD		Antibody 23 (antibody, V domains shown, Human variable region with rat Fc) VH: QVQLVQSGAEVKKPGASVKVSCKSSGHTFTGYYMHWVRQAPGQGLEWMGWINPNSGDTNYAQKFQGRVTMTRDTSISTAYMEMSRLRSDDTAVYYCARDSQILWFGELGYWGQGTLVTVSS VL: QAVVTQESALTTSPGETVTLTCRSSTGAVTASNYANWVQEKPDHLFTGLIGSTNNRAPGVPARFSGSLIGDKAALTITGAQTEDEAIYFCALWYSDHFVFGGGTKLTVL
	0.67 OD	no binding	0.11 OD	0.53 OD	0.215 µM	Antibody 42 (antibody, V domains shown, Human variable region with rat Fc) VH: QVQLVQSGSEVKKPGASVKVSCKASGYTFTNYYIHWVRQAPGQGLEWMGIITPSGGTTSYAQKFQGRVTMTRDTSTNTVYMGLSSLRSEDTAMYYCARAGVQLDRRGWFDPWGQGTLVTVSS VL: SYELTQPPSVSVSPGQTASITCSGDKLGDKYVFWYQQKPGQSPVLVIYQDSKRPSGIPERFSGSNSGNTATLTISGTQTMDEADYYCQAWDSSTVGFGGGTKLAVL
	1.03 OD	no binding	0.13 OD	0.63 OD	0.099 µM	Antibody 31 (antibody, V domains shown, Human variable region with rat Fc) VH: QVQLQESGPGLVKPSETLSLTCTVSGGSISGNYWSWIRQPPGKGLEWIGYIYYSGSTNYNPSLKSRVTISVDTSKNQFSLKLSSVTAADTAVYYCARDLDYFTWGAYSDWYFDLWGRGTLVTVSS VL: DIQMTQSPSSLSASVGDRVTITCRASQSISTFLNWYQQKPGKAPKLLIYATSSLRSGVPSRFSGSGSGTDFTLTISSLQPEDFAIYYCQQSYSTPRTFGQGTQVEIK
	0.96 OD	no binding	0.08 OD	0.11 OD	0.371 µM	Antibody 35 (antibody, V domains shown, Human variable region with rat Fc) VH: QLQLQESGPGLVKPSETLSLTCTVSGGSITNSNYYWGWIRQPPGKGLEWIGSVYYSGTTYYNPSLKSRVTISVDPSKNQFSLKLSSVTAADTAVYYCVRESESYYYYGSDVWGQGTTVTVSS VL: DIQMTQSPSSLSASVGDRVTITCRASQGINNYLAWFQQKPGKAPKSLIYAASSLQSGVPSKFSGSGSGTDFTLTISSLQPEDFATYYCQQYNSYPRTFGQGTKVEIK
0.00605 µM	0.6 OD	no binding	0.08 OD	0.03 OD	0.0153 µM	Antibody 36 (antibody, V domains shown, Human variable region with rat Fc) VH: EVQLVESGGGLVKPGGSLRLSCAASGFTFSSYNMNWVRQAPGRGLDWVSSISSSSSYIYYADSVKGRFTISRDNAKNSLYLQMNTLRAEDTAVYYCARDEEWELLTGFDYWGQGTLVTVSS VL: DIQMTQSPSSLSASVGDRVTITCRASQGINNYLAWFQQKPGKAPKSLIYAASNLQSGVPLKFSGSGSGTDFTLTISSLQPEDFATYYCQQYNSYPITFGQGTRLEIK
	0.51 OD	no binding	0.16 OD	0.06 OD	0.0958 µM	Antibody 34 (antibody, V domains shown) VH: QVQLQQSGTELVRPGTSVKMSCKAAGYTFTNHWIGWVKQRPGHGLEWIGDIYPGGGYTNYNEKFKGKASLTADTSSTTAYMQLSSLTSEDSAIYYCSRFGDQNWAWFAYWGQGTLVTVSA VL: DIQMNQSPSSLSASLGDTITITCRASQNIHMWLSWYQQKPGNIPKLLIFKTSNLHTGVPSRFSGSGSGTDFTLTISSLQPEDIATYYCLQGQSYPFTFGGGTKLEIK
0.034 µM	1.23 OD	no binding	0.11 OD	0.2 OD	0.0581 µM	Antibody 33 (antibody, V domains shown, Human variable region with rat Fc) VH: QVQLQQSGPGLVKPSQTLSLTCAISGDSVSNNNAAWNWIRQSPSRGLEWLGGTYYRSKWYNDYAVSVKSRIIINPVTSKNQFSLQLNSVTPEDTAVYYCARGSSWYRFFDYWGQGTLVTVSS VL: EIVLTQSPGTLSLSPGERATLSCRASQSVGSSYLAWYQQKPGQAPRLLISGASGRATGIPDRFSGSGSGTDFTLTISRLEPEDFTVYYCQQYGSSPYTFGQGTKLEIK
	1.38 OD	no binding	0.1 OD	0.09 OD	0.084 µM	Antibody 38 (antibody, V domains shown, Human variable region with rat Fc) VH: EVQLVESGGGLVKPGGSLRLSCAASGISFSNAWMSWVRQAPGKGLEWVGRIKANPDGGTTDYAAPVKGRFTISRDDSKNTLYLQMNSLKTEDTAVYYCTTELDILLWFTSFDYWGQGTLVTVSS VL: not shown
	0.51 OD	no binding	0.11 OD	0.11 OD	0.0119 µM	Antibody 40 (antibody, V domains shown, Human variable region with rat Fc) VH: EVQLVESGGGLVQPGGSLRLSCAASGFTFSSYSMNWVRQAPGKGLEWVAYISSSTRTIFYADSVKGRFTISRDNAKNSLYLQMNSLRDEDTAFYYCARERSAFDYWGQGTLVTVSS VL: SYVLTQPPSVSVAPGQTARITCGGDNIGGKSVHWYQQKPGQAPVMVVYDDSDRPSGIPERFAGSNSGNTATLAISRVEAGDEADYYCQVWEITSDHPAFGGGTRLTVL

From patent publication US20230083243A1 (VEGA THERAPEUTICS, published 2023)
